In article doi:10.1101/2025.03.06.641855:

Tests used:
[1] = biological target: OppA-ev2 (evolved OppA variant with seven mutations) (E. coli (K12)) (UniProt P23843); assay: MST
[2] = biological target: wt-OppA, periplasmic binding protein of the oligopeptide permease (Opp) transporter (E. coli (K12)) (UniProt P23843); assay: MST

Row | Kd [1] [µM] | Kd [2] [µM] | Substance
1 | 37 | 50 | G-SisoK, isopeptide-linked tripeptide
2 | 300 | 300 | SisoK, isopeptide-linked dipeptide
3 | 275 | 71 | linear GSK tripeptide
